# Data as given in PMC11098746 (2024).
# No end group written: not given here.
# B1: 55 (protein)
# chain: INVQIGNQKYSLCSNKIKKDLLDFYNTLGVSKSDKNLKDNIKKVNLYTKFRKRLYKDRLSIYANVAIKEKGEEVVPVKVVDEKENKENEEKTNILDQEIFTNFMQYNKNNFFCIDELGLDISIPFYKNSGFGANVVYQLPEMVYVNAYTNIYNTIIKGEFNSIDILKRISFFQFFDNFYLNAHYDFKSEKALLNLESKLYEYYNKHGDNIAFNNKIIVERNMHNEYDGSVCLSLKYNNNVFTPIFNFKDKTYEYVYDNLAANRKFSVKVDKERNVHFNYLSFDRVDESNKYFLFFNFIFSNPMQSIITLKREFIF
# modifications: bait human Fc-tagged dimer
# B2: 71 (protein)
# chain: EERYNFNMDKMLKITCHINLHLKKNPHFTITYKKNLQECIDSCKTNIYCTGIEFSRKRVEYTQIILKNNKKIILGYFKCKQFYFQNIYDYSSYNLDSYLNEHIENQINIKSTLTYTNFIMRNKPDIIYTCSIDRDPKYLLYKNYKLVECVIGKFCPGNNAPYMISCPINSATIIPASEDVNKCLCLKGYSYVGVTSYRCSLCDRGSYKNSVGNNKCDNCPLTFSTTHRGSTNIKDCSCTSGNYLTFD
# modifications: bait human Fc-tagged dimer
# B3: 57 (protein)
# chain: NDLCSCNLKVRNNWEHFLQVYQNNGNFKMEILEPECTIQKNLPSEEEKEEFIDFDRKELLLHDFVVIKNSQFTDEKTLELYLSKEENNKAYLMLTFYLGDLKLMIGHNSPYEISLILNVATVNKNMANCKNNAYNIVLLKTTDVFNTADLEILEGPIQFSLGKSSGAFRINVANFFLNNAWKAFTKDKISFLIKPEENCYTILENKINKPQLLIEKKTTFYSEWGEWSNCAMDCDHPDNVQIRERECIHPSGDCFKGDLKESRPCIIPLPPCNELFSHKDNS
# modifications: bait human Fc-tagged dimer
# B4: 3 (protein)
# chain: MGFHIQRYIAMMGRGINPKTWKKLWVDSKNKQIIHVYNDVAEFMNNQIAQVVRVYQYRY
# modifications: also: human Fc-tagged dimer
# B5: 79 (protein)
# chain: YLEQIKNGISGHYTEDHNIKNNNCISFSDYERSIKNFAISSHAENNYDNIINEYKKIKDINNNINILSSVHRKGRILYDSFLEINKLENDKKEKHEKEDEYEDNDESFLETEEYEDNEDEKYNKDEDDYAESFIETDEYEDNEDDKYNKDEDDYSESFIETDEYDDNEEEQYNKDEDDYTDSFIETDHYENNDDKNEEEEEYNDQDNDYGYNFLETDEYDDSEEYDYDDKEYGESFLEKEEGEEMKDEEMKDEEMKDVEMKDEEMKDEEMKYDEMKNEEMKYDEMKDEVMKDEEMKDEVMKDEEMKDEQMKYEEFKNEESKNEESKNEESKNEESKNEEFKNEESKNEEFKNEEFKNEDMSYDEYMGYKKKEEDESYNTFNGAKKNNAANSFLEKDLQGDSDDELHSTFYSKNVDKENYDDKNIFYGYSDNDDESFLETDSYEEYEDEDKDVEDEYEESFLQNDEKKMVFYDLYKPEENEAYYEKKQKKEEKEEKEEKEQSLNKQNDMEDQEDNEEYKFEEENKEDLLDVQQDEELPSEGKQKVKGKSFDNEHLNEIQNVADVHAFIQKDMKYLDDLIDEEQTIKDAVKKSAYKGNKKLGNNKKSQMILEEEPEENFEEDADEELNKLMEQEKNIVDKEIKNSKANKANKKLQFNNANKQNKMYMKNEYNNKAKNNKNNKFEQQNYDESYMDDDYEQNEEFNDNNQAEDMKETNELDKINDELLTDQGPNEDTLLENNNKIFDNKFVAHKKREKSISPHSYQKVSTKVQNKEDMENKEEKQLINDEAAMTAEELVELENTEDVNTPTMVETEEIDSDENGNKAS
# modifications: bait human Fc-tagged dimer
# B6: 47 (protein)
# chain: NNIAHKEDDCGASELAIKKLQELKKFELDILKDFIKKDTDHTDMYKRYHCISSDFLKNTKQEDKKEDNYAKKEDKKDIENSANYIINNKNEKISFINKIISFVGMWNYNKYGNNIQESKNKINIYNNNNNKAENELLYNKEDYTNHIPTNENPNSYMQLSAFNLAKKSMFLGGKDNAAQNFEVGNYGSFYMIFGARNTDYPWACSCDTLQLEEYKEKKRSYVLCSNQLDMSIQNSDLFCNPKN
# modifications: bait human Fc-tagged dimer
# Molecular target: FGFR4 ectodomain (Homo sapiens, UniProt P22455)
# Assay: AVEXIS normalised luminescence
row,Binder,binding score
1,B1,0.922
2,B2,1
3,B3,0.899
4,B4,0.753
5,B5,1.06
6,B6,0.93
